From the supplement of paper PMC12042874 come the findings set out here.

± gives the uncertainty stated by the source.

This series is described as follows: amyloid nucleation score (Sup35N fusion, yeast selection) (log enrichment); library NNK3; higher = more nucleation; inactive = no reads after selection. The gist of the method:
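Plasmid inserts were Illumina-sequenced at input and output from psi-negative yeast expressing Sup35N fused to peptides of 20 random codons. The yeast were induced with 100 μM copper sulfate for 24 hours and grown 7 days at 30°C on medium lacking adenine and uracil, and sequences with under 100 input reads were excluded. Nucleation score is the DiMSum log enrichment of output over input reads, centred on the mode score of non-aggregating sequences.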
As to CSLQWFMV, the amyloid nucleation score result is “inactive”.
The value for CSLVSYSSLLGTCVDGIRDR was “inactive”; that for CSMVSWLIHCANMHRKTSTS was “inactive”.
On to CSNAHFWVRILKECSLRGSG, for which the amyloid nucleation score was found to be 0.587 ± 0.41.
The value for CSNLIIMKNSIERQTAFRYN was 0.284 ± 0.14.
The value for CSNWLWWYYYVRMYRSVRFS was -0.368 ± 0.64.
As for CSQPCRHFYKVKGGYTFKCL, the amyloid nucleation score entry was “inactive”.
As for CSSRMVFLRHLAGFLWGRPP, the amyloid nucleation score came to 0.038 ± 0.85.
With CSVGSFFRFDIIYWKYAGSL, the amyloid nucleation score is -0.2 ± 0.36.
As for CTFFGKLLSCFVYSGMVQ, the amyloid nucleation score result is “inactive”.
To CTKWGGVSVISCQLAVSAKI belongs “inactive”; to CTRHLQMFVNIF, 2.23 ± 0.056; to CTRITHGGGVTSLRNTSESN, “inactive”.
As to CTSGLVVGLVFLMI, the amyloid nucleation score was -0.716 ± 1.4.
To CTSTAVLGSVLCK belongs “inactive”; to CVCVGDSDYCSQSVCVTSYR, “inactive”.
To CVEIVGMESASCVVMNPLVC belongs “inactive”; to CVFDSCSSLYKDMYTLCHVS, “inactive”; to CVFLKKPEKMQLLASSFNS, “inactive”.
To CVFNMLEQ belongs “inactive”; to CVMGVG, 0.312 ± 0.31; to CVPHRRAIVGFFRGCVNAAS, “inactive”.
CVTCLARLHDGPEGIVHLCT: the amyloid nucleation score result was “inactive”.
The value for CVVELHHVCRVPMCPFCWTV was “inactive”.
On to CWAPHPKDRKPVRGNYSVHN, for which the amyloid nucleation score result was “inactive”.
To CWLSWYFATKLGAYWELSNG belongs “inactive”; to CWPESISVVYLQYCAGSMSL, “inactive”; to CWPSVMFKISADNSGWFGVD, “inactive”.
With CWVIVAYTI, the amyloid nucleation score entry is “inactive”.
As for CYGALVVQTAYME, the amyloid nucleation score result was “inactive”.
For CYIGCNLEILNRRDKPFIIR, the amyloid nucleation score result was “inactive”.
To CYLGSHSFSAYCGQLFIFSV belongs “inactive”; to CYLVGLCLLFGVQVSGLPYR, 0.798 ± 0.26; to CYQPRYLSWLKVRDCEDGVY, “inactive”.
To CYQSLECAIMGYGLYVYSWC belongs “inactive”.
With CYSNTLELNDARNCFFNWVR, the amyloid nucleation score result is “inactive”.
Turning to CYVFIEDLTDGMSCRMLFSH, the amyloid nucleation score entry is “inactive”.
To CYVWSTALCVNISCGSSTAE belongs 2.7 ± 0.054; to CYWPVCYSFGKLQACFYFEI, “inactive”; to DAIEKD, “inactive”.
For DAKKNLLVGVFCHYRSSQER, the amyloid nucleation score result is “inactive”.
In the case of DALVSYCWLSNLDTAGKMET, the amyloid nucleation score result is “inactive”.
DARVVGVLDVRDLAKYFWMA: the amyloid nucleation score entry was “inactive”.
To DATDCVRASMFMSFDASRH belongs 1.29 ± 0.13; to DAWDDNYNASRIGFAYMYSI, “inactive”.
DCARFILIT: the amyloid nucleation score entry was “inactive”.
As to DCFSKRWLHLFANYSSVSTN, the amyloid nucleation score entry was “inactive”.
DCIRIYQWASLSL: the amyloid nucleation score entry is “inactive”.
For the substance DDAKFVWYVNINYRYMDSRS, the amyloid nucleation score was 2.16 ± 0.065.
To DDCFIARAFLSLGLPELYLG belongs “inactive”; to DDCIKPYSLIYTQRHTPRDI, “inactive”; to DDDHKIKLLLSGGL, “inactive”.
The value for DDGDVNDGRTWFIL was “inactive”; that for DDSPFLGRFK was “inactive”.
Consider DDVTGKMKKIVCVDSHCQLP, for which the amyloid nucleation score result is “inactive”.
Consider DERLVYGEKSCRFSLSYANM, for which the amyloid nucleation score entry is “inactive”.
As for DFDAFRFIHVVSWFGFTIYP, the amyloid nucleation score result is “inactive”.
Take DFDILGSDHISWWYGRFDKT: the amyloid nucleation score result was “inactive”.
With DFGSDSVDRIPRTGADNSI, the amyloid nucleation score result was “inactive”.
On to DFMRVGVTRRALRVLSKSSD, for which the amyloid nucleation score entry is “inactive”.
To DFNLNEVDTDMGFSLSESL belongs “inactive”.
For DFNSVVLPNGV, the amyloid nucleation score entry is “inactive”.
The value for DFRLFFCLYGVYNLRYCFGW was “inactive”.
For DFYICPCCLSLKKRTMMSCG, the amyloid nucleation score entry is “inactive”.
DGACVSSRLSWGLVYMKKCS: the amyloid nucleation score result is “inactive”.
For DGCGCKWTGACAMLSCHMYL, the amyloid nucleation score is 1.41 ± 0.091.
To DGDIVDSG belongs -0.616 ± 0.8; to DGDYSWGFVIRCHGPRSWSR, “inactive”; to DGFIWAQGLTLIFMRSNMKR, 2.42 ± 0.055.
As to DGHMDR, the amyloid nucleation score result is “inactive”.
To DGHWVALREKSFSNQYRSET belongs “inactive”; to DGRSFAVDAIVYCHLYR, 0.758 ± 0.11; to DGVLNRSNDHPVQTPWPWFW, “inactive”.
On to DGWFNQCASESSFKVHHGS, for which the amyloid nucleation score result is “inactive”.
The value for DIEMY was “inactive”; that for DIERGFGDSCKNGHFAVGSV was -0.629 ± 1.1; that for DIFVFILMLRTTDSWVLLS was “inactive”.
The value for DIFVNAV was “inactive”; that for DILEVIDIF was “inactive”.
To DIQTLPKLDLVFFVWAILEL belongs “inactive”; to DISSILVNTWLFDWKLNP, “inactive”.
On to DITRGCGVKDRKVVPASGLA, for which the amyloid nucleation score result is “inactive”.
For DIVCNFVT, the amyloid nucleation score result is “inactive”.
Turning to DIVYQARCA, the amyloid nucleation score result is “inactive”.
To DKKVSISRVSR belongs “inactive”; to DKMKQKAQKVEDLHMAIGDD, “inactive”.
To DKTCMVKPT belongs “inactive”; to DLAYIGVFLIMFCFTSVDSM, -0.225 ± 0.58; to DLCGNPVPVQSSGLGYDGLV, “inactive”.
Regarding DLFKMRLGTERGY, the amyloid nucleation score entry is “inactive”.
DLGMLERC: the amyloid nucleation score entry is “inactive”.
The value for DLGRNYIVNGIL was “inactive”.
For the substance DLITSRSVLFVIVVL, the amyloid nucleation score result is “inactive”.
Take DLSREQLGCVVGVQAECMKG: the amyloid nucleation score stood at 0.37 ± 0.41.
The value for DLTSIVWSRAYVVSY was “inactive”; that for DLWHPMSY was -0.466 ± 0.84; that for DLWIYIVLYVVAHVALYKDG was “inactive”.
Turning to DMKLPVCSKMPLFMLVIKFK, the amyloid nucleation score entry is “inactive”.
The value for DMSSSGITGTEFRCNYYHEY was “inactive”; that for DNCEDEDKNRRNVRLYRGWV was “inactive”; that for DNIGSCHDSRAYVS was “inactive”.
In turn, DNISHLAFCFNMALWYSNQS yielded an amyloid nucleation score of 1.23 ± 0.14.
On to DNLFSETSYVVRFARFL, for which the amyloid nucleation score result is “inactive”.
With DNLPTRRYLNKNDWRGASYL, the amyloid nucleation score entry was “inactive”.
To DNVIYPASYGVVRRNTRHGF belongs “inactive”.
As for DPLLLNRFGNCMLTLWVIVR, the amyloid nucleation score result was “inactive”.
For the substance DPRRGIPIKPQMINTVQM, the amyloid nucleation score result was “inactive”.
To DPTVVGWEYMVSRFCLSRFT belongs “inactive”.
To DQAIVLVNFVSASSVPPKIF belongs 0.498 ± 0.25.
For DQMIEDRNWNGVNDYSYNAC, the amyloid nucleation score entry is “inactive”.
Consider DRCCLLHYT, for which the amyloid nucleation score entry is “inactive”.
To DRCGVFNTPYLVNSELILC belongs “inactive”.
Regarding DRFEMPDVLWCRDYCNIARS, the amyloid nucleation score entry was “inactive”.
As for DRIDRDGRRIECQWGRGGVM, the amyloid nucleation score result was “inactive”.
The value for DRLHSCYCCTIVHRFYRNYD was “inactive”; that for DRLYGVSFVDF was “inactive”; that for DRNCRLIHYFIQ was “inactive”.
To DRNRCIVYTHGEISRLQ belongs “inactive”; to DRQLDDGGTRNKFIKCLVAR, “inactive”.
To DRTTSVGPYSAVLGFMCDWW belongs “inactive”.
For the substance DRVSANLTFLSS, the amyloid nucleation score result is “inactive”.
To DSFILLDTSTHTNTTAYGKC belongs “inactive”; to DSQCLVWYIRFAYNERSHRK, “inactive”.
The value for DSQVSTTGVMEDRYLPILCF was “inactive”.
The value for DSRFEWLLTLYYRFYLHNGR was “inactive”.
Take DSRKRKVRF: the amyloid nucleation score result was “inactive”.
Turning to DSSKFLLTCHLWCG, the amyloid nucleation score entry is “inactive”.
To DSSKV belongs “inactive”.
In the case of DSSLKMGCKGWNVYVGATLV, the amyloid nucleation score stood at 0.866 ± 0.16.
To DSSSDGSLTYDRGRSRSLFE belongs “inactive”.
